From patent publication US20210061907A1
Numbering of substitutions follows the chain as printed. One block for each binder: values may come before it.

Key:
[1] = biological target: CD19-ECD Fc fusion protein (human) (UniProt P15391); assay: ELISA, plates coated with CD19-ECD Fc, dose series of purified kappa fusion antibody fragment, OD450, GraphPad Prism
[2] = biological target: CD19 on the CD19-positive RaJi cell line (UniProt P15391); assay: flow cytometry on the CD19-positive RaJi cell line, dose series, anti-human IgG-FITC, GraphPad Prism

- EC50 [1]: 3.31 nM
B1: H10 affinity-matured antibody fragment, kappa light chain fusion protein (scFv, V domains shown)
VH: EVQLLESGGGLVQPGGSLRLSCAASGFTFSDYYMSWVRQAPGKGLEWVSGIYYDGTNVYYADSVKGRFTISRDNSKNTLYLQMNSLRAEDTAVYYCAKGPLFCNDRTCSYYYAMDVWGQGTLVTVSS
VL: QSVLTQPPSASGTPGQRVTISCLGGYSNIGSNAVYWYQQLPGTAPKLLIYDDNHRPSGVPDRFSGSKSGTSASLAISGLRSEDEADYYCGTWDYSLSGYVLGGGTKLTVL

- EC50 [1]: 2.56 nM
B2: E12 affinity-matured antibody fragment, kappa light chain fusion protein (scFv, V domains shown)
VH: B1 VH with G55S, T56F, N57V, V58P
VL: B1 VL with L23A, G25S, Y26A

- EC50 [2]: 26.1 nM
- EC50 [1]: 1.87 nM
B3: E3 affinity-matured antibody fragment, kappa light chain fusion protein (scFv, V domains shown)
VH: B1 VH with N57A, V58M
VL: B1 VL with L23S

- EC50 [1]: 3.2 nM
B4: D7 affinity-matured antibody fragment, kappa light chain fusion protein (scFv, V domains shown)
VH: B1 VH with N57A, V58F
VL: B1 VL with L23E, G25Q, Y26P

- EC50 [1]: 2.4 nM
B5: T3C1 affinity-matured antibody fragment, kappa light chain fusion protein (scFv, V domains shown)
VH: B1 VH with T56S, N57A, V58S
VL: B1 VL with L23S, Y26P

- EC50 [1]: 2.48 nM
B6: D10 affinity-matured antibody fragment, kappa light chain fusion protein (scFv, V domains shown)
VH: B1 VH with T56S, N57A
VL: B1 VL with L23W, G25D

- EC50 [2]: 10.5 nM
- EC50 [1]: 1.6 nM
B7: 2F1 affinity-matured antibody fragment, kappa light chain fusion protein (scFv, V domains shown)
VH: B1 VH with T56S, N57S, V58Q, Y59G, Y60W, A61S, D62S
VL: B1 VL with L23Y, G25Q, Y26P

- EC50 [1]: 2.32 nM
B8: T3H9 affinity-matured antibody fragment, kappa light chain fusion protein (scFv, V domains shown)
VH: B1 VH with G55A, T56S, N57A, V58E
VL: B1 VL with L23S, G25M, Y26L

- EC50 [2]: 61.2 nM
- EC50 [1]: 5.81 nM
B9: C2 affinity-matured antibody fragment, kappa light chain fusion protein (scFv, V domains shown)
VH: B1 VH with V58Q
VL: B1 VL with L23T, Y26L
